assay: yeast display, Sf9 membrane polyspecificity reagent, FACS + sequencing; frameworks hold sequencing errors
How it was run: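 After 36–48 hours of galactose induction, yeast (Saccharomyces cerevisiae BJ5465) displaying a synthetic nanobody library were stained at 4 °C for 1 hour with 10% biotinylated, detergent-solubilized Sf9 membrane reagent. Streptavidin microbeads enriched the stained cells before FACS sorting into low and high (top ~1%) gates on anti-HA and streptavidin fluorescence. Each clone's polyreactivity label reflects its gate of origin.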

| Sequence | polyreactivity (PSR sort gate) |
| --- | --- |
| RVQLQESGGGLVQAGGSLRLSCAASGTIFIRGDMGWYRQAPGKEREFVATIETGSNTYYADSEKGRFTISRDNAKNAVYLEMNCLKPGDTAVYYCVVDYQLSGRLRYWGQGTQVTLSS | low polyreactivity |
| RVQLQESGGGLVQAGGSLRLSCAASGTIFNRGDMGWYRQAPGKEREFVATIDTGSNTYYADSEKGPFTISRDNAKNAVYLQMNCLKPGATAVYYCVVDYQLSGRLRYWGQGTQVTLSS | low polyreactivity |
| RVQLVESGGGLFHAGGSLRLSCAASGRTFPTYDMGWYRQAPGKERELVAAINWSGGSTYYADSVKGRFTISRDNAKNTVYLQINSLKPEDTAVYYCNAELLRPSTLGVYLARNYWGQGSQVTVSS | low polyreactivity |
| RVQLVESGGGLVHAGCSLRLSCAASGNTFWYNAMGWYRQAPGKVRELVAAISYSGGGTYYADSVKGRFTISRDNAKNTVYLQMNSLKPEDTAVYYCAADTLQRSFVLYDYWGHGTQVTVSS | high polyreactivity |
| RVQLVESGGGLVKAGGSLRLSCAASGSIFYQYTMGWYRQAPGKERELVATISWSDVSTYYADSVKGRFTISRDNAKNTVYLQMNSLKPEDTAVYYCAALYWGWDRYYGYDYWGQGTQVTVSS | low polyreactivity |
| RVQLVESGGGLVQAGGILRLSSAASGSTFPANAMGWYRQAPGKERELVAAITWRAASTYYADSVKGRFTISRDNAKNTVYLQMNSLKPEDTAVYYCARVTNSSAKNTDDYWGQGTQVTVSS | low polyreactivity |
| RVQLVESGGGLVQAGGSLRLSCAASGRIFKYYAMGWYRPAPGTERELVASITIGSTTYADSVKGRFTISRDNAMNTVYLHMNSLKPEDTAVYYCNRVYRQRLGRDYWGQGTQVTVSS | high polyreactivity |
| RVQLVQSGGGLVQAGGSLRLSCAASGRIFSYNAMGWYRQAPGKERELVAAITFSGGGTYYADSVKGRFTISRDNAKNTVYLQMNSLIPEDTAVYYCNKVSYGYSTYGYWGQGTQVTVSS | low polyreactivity |
| VQLVESGGGLVQAGGSLRLSCAACGSTFYPYAMGWYRPAPGKERELVAAISYSGGSTYYADSVKGRFTISRDNAKNTVYLQMNSLKPEDTAVYYCAARYWYKRFVWGDYWGQGTQVTVSS | high polyreactivity |

— the nanobody polyreactivity screen of Harvey et al. (2022)
